{"source": "the DeepSol protein solubility set"}
{"assay": "soluble on expression in E. coli; label from the status in PepcDB or PDB records"}
{"sequence": "SNPQIRNPMKAMYPGTFYFQFKNLWEANDRDETWLCFTVEGIKRRSVVSWKTGVFRNQVDSETHCHAERCFLSWFCDDILSPNTKYQVTWYTSWSPCPDCAGEVAEFLARHSNVNLTIFTARLYYFQYPCYQEGLRSLSQEGVAVEIMDYEDFKYCWENFVYNDNEPFKPWKGLKTNFRLLKRRLRESLQ", "soluble on expression in E. coli": "soluble"}
{"sequence": "SNPSSSGGTTKRFRTKFTAEQKEKMLAFAERLGWRIQKHDDVAVEQFCAETGVRRQVLKIWMHNNKN", "soluble on expression in E. coli": "soluble"}
{"sequence": "SNRHLCKECFKKDIERRAKKVLGKDIIRNNVKIGIGISGGKDSLVMAYILKELFKHIPNAKLICFFVDEGIKGFRNIAEKYVKEFCKEYNLDLKIIKFEDEIGYTLDEIVKNDYLSKLNIGKPCSFCGVVRRYLLNKHALKEGCDYLAIGHNLDDFCQTILMNYVEGNIKNIIQFGKEFEGGGFVKRIKPLKLIPEEEVKLYAEINNIKYQREPC", "soluble on expression in E. coli": "not soluble"}
{"sequence": "SPGRSSTSSGSTRYISFSGIESALSSLKNFQSCISSGMDTVSSVALDLVETQTEVSSEYSMDKAMVEFAKMDRELSHYVKAVQSTINHVKEERPEKVPDLKLLVEKKFLALQDKNSDADFKENEKFVQFKQQLRELKKQYGIHADRENDLTEGVDEDMIVTQSQTNFICPITQLEMKKPVKNKMCGHTYEEEAIVRMIESKHKRKKKACCPKIGCSHTDMRMSDLIPDEALRRAIESHNKKKKRHSE", "soluble on expression in E. coli": "soluble"}
{"sequence": "SPKKAKPTGSGKEEGPAPCKQMKLEAAGGPSALNFDSPSSLFESLISPIKTETFFKEFWEQKPLLIQRDDPALATYYGSLFKLTDLKSLCSRGMYYGRDVNVCRCVNGKKKVLNKDGKAHFLQLRKDFDQKRATIQFHQPQRFKDELWRIQEKLECYFGSLVGSNVYITPAGSQGLPPHYDDVEVFILQLEGEKHWRLYHPTVPLAREYSVEAEERIGRPVHEFMLKPGDLLYFPRGTIHQADTPAGLAHSTHVTISTYQNNSWGDFLLDTISGLVFDTAKEDVELRTGIPRQLLLQVESTTVATRRLSGFLRTLADRLEGTKELLSSDMKKDFIMHRLPPYSAGDGAELSTPGGKLPRLDSVVRLQFKDHIVLTVLPDQDQSDETQEKMVYIYHSLKNSRETHMMGNEEETEFHGLRFPLSHLDALKQIWNSPAISVKDLKLTTDEEKESLVLSLWTECLIQVV", "soluble on expression in E. coli": "soluble"}
{"sequence": "SPLDRDPAFRVITVTKETGLGLKILGGINRNEGPLVYIHEVIPGGDCYKDGRLKPGDQLVSINKESMIGVSFEEAKSIITRAKLRSESPWEIAFIR", "soluble on expression in E. coli": "soluble"}
{"sequence": "SPLELELCPGRWVGGQHPCFIIAEIGQNHQGDLDVAKRMIRMAKECGADCAKFQKSELEFKFNRKALDRPYTSKHSWGKTYGEHKRHLEFSHDQYRELQRYAEEVGIFFTASGMDEMAVEFLHELNVPFFKVGSGDTNNFPYLEKTAKKGRPMVISSGMQSMDTMKQVYQIVKPLNPNFCFLQCTSAYPLQPEDVNLRVISEYQKLFPDIPIGYSGHETGIAISVAAVALGAKVLERHITLDKTWKGSDHSASLEPGELAELVRSVRLVERALGSPTKQLLPCEMACNEKLGKSVVAKVKIPEGTILTMDMLTVKVGEPKGYPPEDIFNLVGKKVLVTVEEDDTIMEELVDNHGKKIKS", "soluble on expression in E. coli": "soluble"}
{"sequence": "SPSCSPQQASKAEENGSNSFMHSMVPQLEWQMETTQSLVDSYVAIVNKTVWDLMVGLTPKTIMHLMINNNKEFIFSELLANLYLHGDKNMLMEESAEQAQRS", "soluble on expression in E. coli": "soluble"}
{"sequence": "SPWSQDRVEHLYEQVAAENSVDLLKKGQFQGTPDGSSVVFIDDIKDSTLSNVFVAQMRPRDSVLPSVMFSSSGEVKELSDGRQVITMQEGTRYEGVPTRVEYMITKFDEYEGVIGQREVKQKGRDWEAYPTADLIGHPDPEAQAELQWR", "soluble on expression in E. coli": "not soluble"}
{"sequence": "SQGRKPSSELISYQRLHPNEFEIKNLGVLPQSHVIRMERVRFADDIPVAYEITSIPEKIIRGFKESEITEHFFKTLTDNGYEIGKSQQTISASLANSSLAKHLKVKTGDALLSLTQISFLQDGQAFEYVRSYYVGDRFE", "soluble on expression in E. coli": "not soluble"}
{"sequence": "SQIFASDGKTQLARIVPPDGNRTEVPIDKIPEVTRNAVLAAEDREFYTNSGFSFTGFGRAILGQLTGDASAGGGSTITQQYVKNMVVGNDYSYMRKAKELVYSVKMANEWSKDEVLGAYLNTIYFGRNAYGIDAAAHAYFGVPASELNVGQSAMLAATIQRPSQLDPWSNR", "soluble on expression in E. coli": "not soluble"}
{"sequence": "SQRRGQLSRRLVNSADRDPSDENSLSRAPAPACTSRGTHVVETTSLKRHSKVLRSQDASGTAESVNSQTPDDEVDHTLWTLVREVSDAEAAFWALRNDSRLLGFVLRSQLLALVHDDSSVTDFLEAAQQPTDVGDVQAEFILCWVPVPGGPAILWRADYQRLIEEQVARRLSELEDPARKAALWGTTREQVERDTHIRAADGSCWLRTLPCPPSVIRALTQGQKALVQQVKRMGRYGRLPLHRAELLRLSRTCFSARFHILDAVGCGTLALDAQNTLSKEPYLCLPEVRTTNIVDSGEIGF", "soluble on expression in E. coli": "soluble"}
{"sequence": "SREEMSLGCQEAFEIFKRDHADSVTIDDNKQILKQRFSEAKALGESINEARSKIGHLKEEITQRHIQQVALGISENMAVPLMPDQQEEKLRSQLEEEKRRYKTMFTRLKALKVEIEHLQLLMDKAKVKLQKEFEVWWAEEATNLQVNSPAVNSLDHTKPFLQTSDSQHEWSQLLSNKSSGGWEVQDQGTGRFDVCDVNARKILPSPCPSPHSQKQSSTSTPLEDSIPKRPVSSIPLTGDSQTDSDIIAFIKARQSILQKQCLGSN", "soluble on expression in E. coli": "soluble"}
{"sequence": "SRQHTSISDYDVMILDLTDVPMLDVTVGLALENAIKDALDARCEVYLLCPNQRTREQLEKFHVIDLVPDNNMYQFRYEALNAAVAHVESDQYQRMTA", "soluble on expression in E. coli": "not soluble"}
{"sequence": "SRRLGKSLGINSIPCKFCSYDCVYCQVGRTINKTIERREFYSPEDIFKSVEERIGKLNNEKIDYLTFVADGEPTLDINLSKEVEMLRDFDIPIAIITNSSLIWREDVRNDILNFDLVSFKVDSVDEKIWREINRPHKDLVLDKILEGMIAFRDNYKGELITETMILGSIKYTEESIIKTAEFLKELNPNKCYLNTPIRPPSEKYIKPPKIEVITKILAIFNEIIGKNKIKLLGKFE", "soluble on expression in E. coli": "not soluble"}
{"sequence": "SRTPAKGNGADPIRLPVRSGIRESRLEFHYHYSNFLVYGEAGSGKTKSIGKWLLSEYMRLGFAGFIYDFKDTDYTRTAYNLIKRHRYPHKFYYVSFDRPERSYRFNPLKVVRDRTELIQLMEDVLLALLPKKEQQNEWVAGGLGILRGVAFRFWDEFPEHCTLPHILAFIMTASARQLSLFLQQNLVSEMLAGAYLKAEGSEKTQASYLSTLCNNLATISQNEEIAYVLSGDDFDFNLIDPETPKLFAVSNNFSKNSVYAPVISMLMTISARQFSMQNRVPFVYFLDEMTTVNIKNFETLPSVLREYKAAFILLTQSGAKLENLYGKLDRSSVEANFGNMFLGRTKDVEALKYYPLFFGKEEKERRSRSSGKSGASSSSSVTVSSQKEDIYQGKDFADLEPGEFIGSATRANVSYFKVKLEMYDDRNEEPLPDVRVLEPGELGRNFARILEEVRELFPCE", "soluble on expression in E. coli": "not soluble"}
{"sequence": "SSFKREGDDWSQLNVLKKRRVGDLLASYIPEDEALMLRDGRFACAICPHRPVLDTLAMLTAHRAGKKHLSSLKLFYGKKQTGKGTEQNPRQQNELKTESKTEAPLLTQTRIITQNALHRAPHYNSCCRRKHRPEAPAPSVSSPPLPTAEVQLQSAEISKEPEPRERSDAKESAALLASAPMSPTKRRVLNHYLTLRSSGWVPDGRGRWIKDENVEFDSDEEEPPDLPLD", "soluble on expression in E. coli": "soluble"}
{"sequence": "SSGSTVDSTTLCLFDVDGTLTAARQKATADMHEFLSKLKQRVKVGVVGGSDLDKIKEQLGDDVIDRVDYVFAENGLVAYRFGKLHSVQNIQAYLGEDILQEFINFCLNYLSKIKLPKKRGTFIEFRNGMLNVSPIGRSCSQQERIEFFELDKKEKIRETFVSVLKEEFAGKGLAFSIGGQISFDVFPEGWDKRYCLGIVEKDSYQHIHFFGDKTMPGGNDYEIFVDPRTIGHEVKSPEDTQRICRELFFS", "soluble on expression in E. coli": "soluble"}
{"sequence": "SSNFSSERIRYAKWFLEHGFNIIPIDPESKKPVLKEWQKYSHEMPSDEEKQRFLKMIEEGYNYAIPGGQKGLVILDFESKEKLKAWIGESALEELCRKTLCTNTVHGGIHIYVLSNDIPPHKINPLFEENGKGIIDLQSYNSYVLGLGSCVNHLHCTTDKCPWKEQNYTTCYTLYNELKEISKVDLKSLLRFLAEKGKRLGITLSKTAKEWLEGKKEEEDTVVEFEELRKELVKRDSGKPVEKIKEEICTKSPPKLIKEIICENKTYADVNIDRSRGDWHVILYLMKHGVTDPDKILELLPRDSKAKENEKWNTQKYFVITLSKAWSVVKKYLEA", "soluble on expression in E. coli": "soluble"}
